The data set has as its target T1, melanopsin (mOPN4-Flag), on Per2:ELuc:TK:Mel cells (mouse) (UniProt Q9QXZ9).
T1 sequence: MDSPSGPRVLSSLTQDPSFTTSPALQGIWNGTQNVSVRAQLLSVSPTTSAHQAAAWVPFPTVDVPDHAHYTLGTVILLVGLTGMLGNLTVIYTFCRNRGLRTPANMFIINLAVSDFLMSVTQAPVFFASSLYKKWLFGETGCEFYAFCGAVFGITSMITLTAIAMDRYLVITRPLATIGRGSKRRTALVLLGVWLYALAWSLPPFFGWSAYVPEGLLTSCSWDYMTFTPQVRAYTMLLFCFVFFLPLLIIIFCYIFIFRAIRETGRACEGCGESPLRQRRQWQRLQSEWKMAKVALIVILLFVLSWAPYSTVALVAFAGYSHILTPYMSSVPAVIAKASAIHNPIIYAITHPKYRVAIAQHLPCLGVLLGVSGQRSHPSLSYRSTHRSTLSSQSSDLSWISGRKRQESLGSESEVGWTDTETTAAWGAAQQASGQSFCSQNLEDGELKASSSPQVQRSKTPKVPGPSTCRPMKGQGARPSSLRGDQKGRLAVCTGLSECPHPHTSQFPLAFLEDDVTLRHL
Kind of data set: cell binding fluorescence (microplate), EC50. Particulars: 6-FAM-Melapt (1.405-90 ug/mL) added to adherent cells in DMEM, 15 min, washed, fluorescence 495/517 nm, n=3, cells cultured at 37 C, 5% CO2, binding pH and ….

Sequence “AAAGGGGAATTCGGATCCTTCACCGATACGGCTCCCTTGGCCAGACAGGAAAAAATAACTGCAGAAGCTTCCGTTT [6-FAM-Melapt08]” yielded a K half (Results text gives 22.5 ug/mL, not saturated at 90 ug/mL) of 45 µg/mL.
“AAAGGGGAATTCGGATCCCCGCACACGTGGAGCCAAGTCGAGTTTAATTCCCTATCGCCTGCAGAAGCTTCCGTTT [6-FAM-Melapt04]” displayed a K half of 5.62 µg/mL.
Same read-out and setting: the value for “AAAGGGGAATTCGGATCCCGACCCGAAGGAGCGGTGGATAACCCCACCAAGATACGTCCTGCAGAAGCTTCCGTTT [6-FAM-Melapt01]” was 11.2 µg/mL.

Source of the values: article PMC11062245.
